In IntAct's records for PubMed 26387864:

B1: Calcium uptake protein 1, mitochondrial (Homo sapiens), Q9BPX6 (parent)
chain: MFRLNSLSALAELAVGSRWYHGGSQPIQIRRRLMMVAFLGASAVTASTGLLWKRAHAESPPCVDNLKSDIGDKGKNKDEGDVCNHEKKTADLAPHPEEKKKKRSGFRDRKVMEYENRIRAYSTPDKIFRYFATLKVISEPGEAEVFMTPEDFVRSITPNEKQPEHLGLDQYIIKRFDGKKISQEREKFADEGSIFYTLGECGLISFSDYIFLTTVLSTPQRNFEIAFKMFDLNGDGEVDMEEFEQVQSIIRSQTSMGMRHRDRPTTGNTLKSGLCSALTTYFFGADLKGKLTIKNFLEFQRKLQHDVLKLEFERHDPVDGRITERQFGGMLLAYSGVQSKKLTAMQRQLKKHFKEGKGLTFQEVENFFTFLKNINDVDTALSFYHMAGASLDKVTMQQVARTVAKVELSDHVCDVVFALFDCDGNGELSNKEFVSIMKQRLMRGLEKPKDMGFTRLMQAMWKCAQETAWDFALPKQ
partner: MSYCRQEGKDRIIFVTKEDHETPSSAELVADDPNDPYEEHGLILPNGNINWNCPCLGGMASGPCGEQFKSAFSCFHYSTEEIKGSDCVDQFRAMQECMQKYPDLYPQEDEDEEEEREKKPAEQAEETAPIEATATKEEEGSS
B2: Mitochondrial intermembrane space import and assembly protein 40 (Homo sapiens), Q8N4Q1 (parent)
chain: B1 partner
B3: Calcium uptake protein 1, mitochondrial (Homo sapiens), Q9BPX6 (parent)
chain: B1 chain

Variants of: B1
Settings: with mia40_human CHCHD4, Q8N4Q1

effect of a mutation on the interaction | Variant
disrupting interaction strength | MFRLNSLSALAELAVGSRWYHGGSQPIQIRRRLMMVAFLGASAVTASTGLLWKRAHAESPPCVDNLKSDIGDKGKNKDEGDVCNHEKKTADLAPHPEEKKKKRSGFRDRKVMEYENRIRAYSTPDKIFRYFATLKVISEPGEAEVFMTPEDFVRSITPNEKQPEHLGLDQYIIKRFDGKKISQEREKFADEGSIFYTLGECGLISFSDYIFLTTVLSTPQRNFEIAFKMFDLNGDGEVDMEEFEQVQSIIRSQTSMGMRHRDRPTTGNTLKSGLCSALTTYFFGADLKGKLTIKNFLEFQRKLQHDVLKLEFERHDPVDGRITERQFGGMLLAYSGVQSKKLTAMQRQLKKHFKEGKGLTFQEVENFFTFLKNINDVDTALSFYHMAGASLDKVTMQQVARTVAKVELSDHVCDVVFALFDCDGNGELSNKEFVSIMKQRLMRGLEKPKDMGFTRLMQAMWKAAQETAWDFALPKQ [C463A]

Variants of: B2
Settings: with micu1_human MICU1, Q9BPX6

effect of a mutation on the interaction | Variant
disrupting interaction strength | MSYCRQEGKDRIIFVTKEDHETPSSAELVADDPNDPYEEHGLILPNGNINWNCPSLGGMASGPCGEQFKSAFSCFHYSTEEIKGSDCVDQFRAMQECMQKYPDLYPQEDEDEEEEREKKPAEQAEETAPIEATATKEEEGSS
with no effect | MSYCRQEGKDRIIFVTKEDHETPSSAELVADDPNDPYEEHGLILPNGNINWNSPCLGGMASGPCGEQFKSAFSCFHYSTEEIKGSDCVDQFRAMQECMQKYPDLYPQEDEDEEEEREKKPAEQAEETAPIEATATKEEEGSS
disrupting interaction strength | MSYSRQEGKDRIIFVTKEDHETPSSAELVADDPNDPYEEHGLILPNGNINWNSPSLGGMASGPCGEQFKSAFSCFHYSTEEIKGSDCVDQFRAMQECMQKYPDLYPQEDEDEEEEREKKPAEQAEETAPIEATATKEEEGSS

Variants of: B3
Settings: with mcu_human MCU

effect of a mutation on the interaction | Variant
with no effect | MFRLNSLSALAELAVGSRWYHGGSQPIQIRRRLMMVAFLGASAVTASTGLLWKRAHAESPPCVDNLKSDIGDKGKNKDEGDVCNHEKKTADLAPHPEEKKKKRSGFRDRKVMEYENRIRAYSTPDKIFRYFATLKVISEPGEAEVFMTPEDFVRSITPNEKQPEHLGLDQYIIKRFDGKKISQEREKFADEGSIFYTLGECGLISFSDYIFLTTVLSTPQRNFEIAFKMFDLNGDGEVDMEEFEQVQSIIRSQTSMGMRHRDRPTTGNTLKSGLCSALTTYFFGADLKGKLTIKNFLEFQRKLQHDVLKLEFERHDPVDGRITERQFGGMLLAYSGVQSKKLTAMQRQLKKHFKEGKGLTFQEVENFFTFLKNINDVDTALSFYHMAGASLDKVTMQQVARTVAKVELSDHVCDVVFALFDCDGNGELSNKEFVSIMKQRLMRGLEKPKDMGFTRLMQAMWKSAQETAWDFALPKQ [C463S]
